Data from article PMC3751554.

Key:
[1] = target: TRIMCypA from Macaca fascicularis (Macaca fascicularis)
[2] = target: owl monkey TRIMCypA fusion protein (owl monkey (Aotus sp.))
[3] = target: TRIMCypA from Macaca mulatta (Macaca mulatta)

Substance | restriction of infection: ratio of infection titers on CHO cells stably expressing mafa-TRIMCypA over control CHO cells (infectivity ratio) [1] | restriction of infection: ratio of infected cells in CHO cells stably expressing owl-TRIMCypA over control CHO cells (infectivity ratio) [2] | restriction of infection: ratio of infection titers on CHO cells stably expressing mamu-TRIMCypA over control CHO cells (infectivity ratio) [3]
SIVmnd1 capsid (CA) (natural protein) | < 0.4 | < 0.4 | 
HIV-2ROD capsid (CA) (natural protein) |  |  | < 0.2
SIVgsn capsid (CA) (natural protein) | < 0.4 |  | 
